Substrate in this series: O=C(O)C(=O)O
In words: purified protein. To be noted: 0.5 mM CoA, 5 mM ATP, 10 mM MgCl2, 2 mM DTT, 0.1 M Tris-HCl or NaPO4 pH 8.0, sodium oxalate as substrate.

B1: GsAAE3 (Glycine max) (protein)
chain: MKDTMETPTTLTTLLRHVAAKFPSRRAISVAAKFDLTHSRLHRLVESAAAQLVSAGVKPGDVVALTFPNTIEFVVMFLAVIRARATAAPLNSAYTAEEFEFYLSDSESKLLLTSPEGNKPAQAAASKLSIPHATASITKAENEEAELSLSLLNHPELNSVNSVESLVNDPDDVALFLHTSGTTSRPKGVPLTQYNLLSSVKNIDSVYRLTESDSTVIVLPLFHVHGLIAGLLSSLGAGAAVALPAAGRFSASAFWKDMIKYSATWYTAVPTIHQIILDRHSSNPEPVYPRLRFIRSCSASLAPVILGKLEEAFGAPVLEAYAMTEASHLMASNPLPQDGAHKSGSVGKPVGQEMGILDESGRVQEAGISGEVCIRGSNVTKGYKNNVAANTASFLFDWFHTGDIGYFDSDGYLHLVGRIKELINRGGEKISPIEVDAVLLSHPEIAQAVAFGVPDAKYGEEIYCAVIPREGSNVDEAEVLRFSKTNLASFKVPKKVFITDSLPKTATGKILRRLVAEHFVSQI
On to B1, for which the Km was 105.10 ± 12.30 µM.

In general, Km refers to the concentration of substrate that gives half-maximal velocity.

Source of the values: PMC7700444.
